Measured values: the Immune Epitope Database (IEDB)
One block for each sequence: values may come before it.

Tests used:
[1] = molecular target: HLA-B*15:01; experiment: IEDB peptide-MHC binding, purified MHC/competitive/radioactivity; filed as Kd, often an IC50 or EC50 that approximates it; ≥ and ≤ were set here for values at or beyond the usual limits of such assays
[2] = molecular target: HLA-B*07:02; experiment: as above
[3] = molecular target: HLA-B*08:01; experiment: as above
[4] = molecular target: HLA-A*02:01; experiment: as above
[5] = molecular target: HLA-B*35:01; experiment: as above
[6] = molecular target: HLA-A*02:02; experiment: as above; conditions: source organism: Homo sapiens
[7] = molecular target: HLA-B*51:01; experiment: as above
[8] = molecular target: HLA-A*32:01; experiment: as above
[9] = molecular target: HLA-A*23:01; experiment: as above
[10] = molecular target: HLA-B*15:03; experiment: as above
[11] = molecular target: HLA-A*24:02; experiment: as above; conditions: source organism: Dengue virus 4 Philippines/H241/1956
[12] = molecular target: HLA-A*30:01; experiment: as above
[13] = molecular target: HLA-A*26:01; experiment: IEDB peptide-MHC binding, purified MHC/direct/fluorescence; filed as Kd, often an IC50 or EC50 that approximates it; ≥ and ≤ were set here for values at or beyond the usual limits of such assays
[14] = molecular target: HLA-A*69:01; experiment: as above
[15] = molecular target: HLA-B*15:01; experiment: as above
[16] = molecular target: HLA-A*01:01; experiment: as above
[17] = molecular target: HLA-B*58:01; experiment: as above
[18] = molecular target: HLA-A*24:03; experiment: as above
[19] = molecular target: HLA-A*11:01; experiment: as above
[20] = molecular target: HLA-A*31:01; experiment: as above
[21] = molecular target: HLA-A*03:01; experiment: as above
[22] = molecular target: HLA-A*02:01; experiment: as above
[23] = molecular target: HLA-B*40:01; experiment: as above
[24] = molecular target: HLA-B*07:02; experiment: as above
[25] = molecular target: HLA-B*08:01; experiment: as above
[26] = molecular target: HLA-B*27:05; experiment: as above
[27] = molecular target: HLA-B*44:02; experiment: as above
[28] = molecular target: HLA-A*30:02; experiment: IEDB peptide-MHC binding, purified MHC/competitive/radioactivity; filed as Kd, often an IC50 or EC50 that approximates it; ≥ and ≤ were set here for values at or beyond the usual limits of such assays; conditions: source organism: Dengue virus 4 Philippines/H241/1956
[29] = molecular target: HLA-A*01:01; experiment: as above
[30] = molecular target: HLA-A*02:03; experiment: as above; conditions: source organism: Dengue virus 2 Jamaica/1409/1983
[31] = molecular target: HLA-B*53:01; experiment: as above
[32] = molecular target: HLA-A*26:01; experiment: IEDB peptide-MHC binding, purified MHC/competitive/fluorescence; filed as Kd, often an IC50 or EC50 that approximates it; ≥ and ≤ were set here for values at or beyond the usual limits of such assays; conditions: source organism: Salmonella enterica subsp. enterica serovar Typhi
[33] = molecular target: HLA-A*02:01; experiment: as above; conditions: source organism: Salmonella enterica subsp. enterica serovar Typhi
[34] = source organism: Dengue virus 4 Philippines/H241/1956
[35] = source organism: Dengue virus 3 Singapore/8120/1995
[36] = source organism: Dengue virus 3 Martinique/1243/1999
[37] = source organism: Dengue virus 1 Brazil/97-11/1997
[38] = source organism: Vaccinia virus Copenhagen
[39] = source organism: Vaccinia virus WR
[40] = source organism: Vibrio parahaemolyticus
[41] = source organism: Vibrio vulnificus
[42] = source organism: Dengue virus 2 Jamaica/1409/1983
[43] = source organism: Neisseria gonorrhoeae
[44] = source organism: Giardia lamblia ATCC 50803

Sequence: LQRKHGGSL
Kd [1, 34]: 26.2 nM | Kd [2, 34]: 58.2 nM | Kd [3, 34]: 57.4 nM

Kd ([4]; source organism: Homo sapiens): 8.1 nM
Sequence: ALYGSVPVL

Sequence: RPMPGTRKVM
Kd [5, 35]: 8170 nM | Kd [2, 35]: 1.13 nM

Kd [6]: 123 nM | Kd ([4]; source organism: Homo sapiens): 3100 nM
Sequence: EMIQLQEEL

Sequence: QPFLALGFFL
Kd [7, 36]: ≥ 69600 nM | Kd [5, 36]: 200 nM | Kd [2, 36]: 577 nM

Sequence: KLVMAFIAF
Kd [1, 37]: 1.39 nM | Kd [8, 37]: 1180 nM | Kd [9, 37]: 4820 nM

Sequence: LESQHIISF
Kd [10, 38]: 28.4 nM | Kd [1, 38]: 57.1 nM

Sequence: LPPEKCDTLL
Kd [5, 36]: 5980 nM | Kd [3, 36]: 707 nM

Kd ([4]; source organism: Homo sapiens): 132 nM
Sequence: GLDVLTAKV

Sequence: LMLVTPSMAM
Kd [1, 37]: 7.08 nM

Sequence: RPTPTGTVM
Kd [5, 36]: 1430 nM | Kd [2, 36]: 1.98 nM

Sequence: LLMRTTWAF
Kd [1, 34]: 1.08 nM | Kd [11]: 24.4 nM | Kd [8, 34]: 1.69 nM | Kd [9, 34]: 75.4 nM | Kd [3, 34]: 54.7 nM

Sequence: KGKAAAFAK
Kd [10, 39]: 1900 nM | Kd [1, 39]: 12000 nM | Kd [8, 39]: ≥ 56000 nM | Kd [12, 39]: 3.12 nM | Kd [3, 39]: ≥ 77700 nM

Sequence: ILLRKGHVF
Kd [13, 40]: ≥ 20000 nM | Kd [14, 40]: ≥ 20000 nM | Kd [15, 41]: 115 nM | Kd [16, 40]: ≥ 20000 nM | Kd [17, 40]: ≥ 20000 nM | Kd [18, 41]: 4280 nM | Kd [19, 40]: ≥ 20000 nM | Kd [20, 40]: ≥ 20000 nM | Kd [21, 40]: ≥ 20000 nM | Kd [22, 40]: ≥ 20000 nM | Kd [23, 40]: ≥ 20000 nM | Kd [24, 41]: 10000 nM | Kd [25, 41]: 107 nM | Kd [26, 40]: ≥ 20000 nM | Kd [27, 40]: ≥ 20000 nM

Sequence: RAKGSRAIWY
Kd [28]: 77 nM | Kd [1, 34]: 36.1 nM

Sequence: ITKINTHLA
Kd [10, 39]: ≥ 51400 nM | Kd [1, 39]: 2890 nM | Kd [8, 39]: ≥ 77800 nM | Kd [12, 39]: 14.9 nM | Kd [3, 39]: ≥ 22100 nM

Sequence: LTFKACDHI
Kd [10, 39]: 845 nM | Kd [1, 39]: 973 nM | Kd [8, 39]: 18800 nM | Kd [12, 39]: 81.5 nM | Kd [3, 39]: 838 nM

Sequence: NATDTWVTY
Kd [29, 37]: 144 nM | Kd [5, 37]: 20.9 nM

Sequence: ILAAVSVSPL
Kd [1, 42]: 28.9 nM | Kd [30]: 13 nM

Sequence: HPGFTVIALF
Kd [5, 37]: 101 nM | Kd [31, 37]: 87.9 nM

Sequence: ISKNAFSCM
Kd [1, 39]: 78.1 nM

Sequence: GPLRMVLAF
Kd [5, 34]: 1230 nM | Kd [31, 34]: 122 nM | Kd [2, 34]: 5.58 nM

Sequence: LPDYGELTL
Kd [7, 34]: 1230 nM | Kd [5, 34]: 100 nM | Kd [31, 34]: 77.1 nM | Kd [2, 34]: 67.8 nM

Sequence: TVIDLDPIPY
Kd [1, 42]: 1.83 nM | Kd [29, 42]: 1540 nM

Sequence: RRLLKFRVE
Kd [10, 38]: 14900 nM | Kd [1, 38]: ≥ 55000 nM | Kd [8, 38]: ≥ 34900 nM | Kd [12, 38]: 1040 nM | Kd [3, 38]: 128 nM

Sequence: FIRYRMHPM
Kd [10, 39]: 21.6 nM | Kd [1, 39]: 1.22 nM | Kd [8, 39]: 14300 nM | Kd [12, 39]: 2790 nM | Kd [3, 39]: 0.208 nM

Sequence: SIIVLFQRF
Kd [1, 39]: 1.09 nM | Kd [3, 39]: 8550 nM

Sequence: HVAAFSSLI
Kd [32]: 57.5 nM | Kd [33]: 61.3 nM

Sequence: KSSPETQQM
Kd [10, 39]: 108 nM | Kd [1, 39]: 30.4 nM | Kd [8, 39]: 464 nM | Kd [12, 39]: 1130 nM | Kd [3, 39]: 2350 nM

Sequence: IVIGVGDSAL
Kd [1, 34]: 27.8 nM

Sequence: VIIMAINVF
Kd [10, 39]: 2030 nM | Kd [1, 39]: 26.4 nM

Kd ([4]; source organism: Triticum aestivum): 147 nM
Sequence: QLIPCMDVV

Sequence: KSIEQHPVV
Kd [10, 39]: 79.6 nM | Kd [1, 39]: 70.5 nM | Kd [8, 39]: 1910 nM | Kd [12, 39]: 2.7 nM | Kd [3, 39]: 11700 nM

Sequence: FPTSRTTWSI
Kd [7, 34]: 184 nM | Kd [5, 34]: 327 nM | Kd [31, 34]: 16.4 nM | Kd [2, 34]: 55.5 nM

Sequence: VEGEGLHKL
Kd ([27]; source organism: Dengue virus 1 Singapore/S275/1990): ≥ 20000 nM

Sequence: GSDKQVVGQ
Kd [13, 43]: ≥ 20000 nM | Kd [14, 43]: ≥ 20000 nM | Kd [15, 43]: ≥ 20000 nM | Kd [16, 43]: ≥ 20000 nM | Kd [17, 43]: ≥ 20000 nM | Kd [18, 43]: ≥ 20000 nM | Kd [19, 43]: ≥ 20000 nM | Kd [20, 43]: ≥ 20000 nM | Kd [21, 43]: ≥ 20000 nM | Kd [22, 43]: ≥ 20000 nM | Kd [23, 43]: ≥ 20000 nM | Kd [24, 43]: ≥ 20000 nM | Kd [25, 43]: ≥ 20000 nM | Kd [26, 43]: ≥ 20000 nM | Kd [27, 43]: ≥ 20000 nM

Sequence: WSFLEDRVY
Kd [13, 44]: ≥ 20000 nM | Kd [14, 44]: ≥ 20000 nM | Kd [15, 44]: 42 nM | Kd [16, 44]: 2270 nM | Kd [17, 44]: 484 nM | Kd [18, 44]: ≥ 20000 nM | Kd [19, 44]: ≥ 20000 nM | Kd [20, 44]: ≥ 20000 nM | Kd [21, 44]: ≥ 20000 nM | Kd [22, 44]: ≥ 20000 nM | Kd [23, 44]: ≥ 20000 nM | Kd [24, 44]: ≥ 20000 nM | Kd [25, 44]: ≥ 20000 nM | Kd [26, 44]: ≥ 20000 nM | Kd [27, 44]: ≥ 20000 nM
